We go through two substances from publication PMC11892807.

For assay [1], the target named is CA(A14C/E45C/W184A/M185A) (HIV-1). In words: cross-linking; disulfide cross-linking of monomeric CA with DMSO, by sequential dialysis out of beta-mercaptoethanol at 4 C (final 20 mM Tris-HCl pH 8, 40 mM NaCl, no reducing agent); products on SDS-PAGE; legend: 1 uM CA, methods: diluted to 1 uM, then concentrated to 125 uM.
For assay [2] the target is unchanged. In words: mass photometry; no ligand added; 2 uL of sample into 18 uL buffer, 60 s at 331 Hz; unliganded WT CA and pre-formed cross-linked pentamers and hexamers as controls.
For assay [3] the target is unchanged. Description: cross-linking; as the DMSO reaction, but 2 uM LEN pre-incubated with monomeric CA (1 uM) before concentration to 125 uM and sequential dialysis out of beta-mercaptoethanol; products on SDS-PAGE.
The target in assay [4] is CA(N21C/A22C/W184A/M185A) (HIV-1). Description: cross-linking; disulfide cross-linking of monomeric CA with DMSO, by sequential dialysis out of beta-mercaptoethanol at 4 C (final 20 mM Tris-HCl pH 8, 40 mM NaCl, no reducing agent); products on SDS-PAGE; legend: 1 uM CA, methods: diluted to 1 uM, then concentrated to 125 uM.
For assay [5] the target is unchanged. Description: mass photometry; no ligand added; 2 uL of sample into 18 uL buffer, 60 s at 331 Hz; unliganded WT CA and pre-formed cross-linked pentamers and hexamers as controls.

The term stoichiometry N denotes the number of molecules, sites or subunits per partner or assembly. Regarding “CA(A14C/E45C/W184A/M185A) (natural protein)”, the stoichiometry N in assay [1], in assay [2] and in assay [3] was 6 throughout.
“CA(N21C/A22C/W184A/M185A) (natural protein)”: the stoichiometry N in assay [4] and in assay [5] was 5 in each case.
